In PMC7498260, “The peroxisome counteracts oxidative stresses by suppressing catalase import via Pex14 phosphorylation” (eLife, 2020):

Target: Pex5L (Chinese hamster, ClPex5L) (Chinese hamster, UniProt Q920N5 1-640)
Assay: pull-down; GST-Pex14 variants (2 μg) on glutathione-Sepharose beads incubated with Pex5L (2 μg) together with EGFP-PTS1 (4 μg) or HA-catalase (4 μg), 2 hr at 4°C, 50 mM Tris-HCl pH 7.5, 0.15 M NaCl, 1% Triton X-100, 10% glycerol; bound fraction by immunoblot, quantified and normalised by GST-Pex14
Details: both partners purified

B1: HA-catalase (human) (enzyme)
chain: MADSRDPASDQMQHWKEQRAAQKADVLTTGAGNPVGDKLNVITVGPRGPLLVQDVVFTDEMAHFDRERIPERVVHAKGAGAFGYFEVTHDITKYSKAKVFEHIGKKTPIAVRFSTVAGESGSADTVRDPRGFAVKFYTEDGNWDLVGNNTPIFFIRDPILFPSFIHSQKRNPQTHLKDPDMVWDFWSLRPESLHQVSFLFSDRGIPDGHRHMNGYGSHTFKLVNANGEAVYCKFHYKTDQGIKNLSVEDAARLSQEDPDYGIRDLFNAIATGKYPSWTFYIQVMTFNQAETFPFNPFDLTKVWPHKDYPLIPVGKLVLNRNPVNYFAEVEQIAFDPSNMPPGIEASPDKMLQGRLFAYPDTHRHRLGPNYLHIPVNCPYRARVANYQRDGPMCMQDNQGGAPNYYPNSFGAPEQQPSALEHSIQYSGEVRRFNTANDDNVTQVRAFYVNVLNEEQRKRLCENIAGHLKDAQIFIQKKAVKNFTEVHPDYGSHIQALLDKYNAEKPKNAIHTFVQSGSHLAAREKANL
notes: catalase, human (HsCatalase); HA-Catalase amplified from pUcD3/HA-HsCatalase (Otera and Fujiki, 2012) and cloned into pGEX6P-1; The forward primer GST-HA-HsCatalase.BglFw starts with ATG GCT TAT CCA TAC GAC, i.e. the HA tag lies at the N-terminus of catalase; also called HA-HsCatalase; source: E. coli DH5α, GST fusion purified with glutathione-Sepharose beads, isolated by cleaving …
- binding result: binds
